Publication PMC3556581 (Nature structural & molecular biology, 2009)

Key:
[1] = target: CypA domain of rhesus macaque TRIMCyp (RhTC CypA) (rhesus macaque, UniProt P62940 1-165, D66N | R69H); experiment: ITC
[2] = target: parental cyclophilin A (CypA) (rhesus macaque; identical in sequence …, UniProt P62940 1-165); experiment: ITC

B1: HIV-2 N-terminal capsid (CA^N) domain (domain or fragment)
chain: not shown
Kd [1]: 3 µM
dH [1]: -1.16 kcal/mol
Kd [2]: 91 µM
